Experiments:
Assay in all cases: immunofluorescence on transfected, formalin-fixed C2C12 cells, IgG at 10 µg/mL, Alexa 594 anti-rat IgG
[1] = target: T1, wild-type human ALK2 on cells (cDNA in pcDEF3) (human, UniProt Q04771 21-509)
T1 construct: also called wild-type ALK2; ALK2 (WT)
T1 sequence: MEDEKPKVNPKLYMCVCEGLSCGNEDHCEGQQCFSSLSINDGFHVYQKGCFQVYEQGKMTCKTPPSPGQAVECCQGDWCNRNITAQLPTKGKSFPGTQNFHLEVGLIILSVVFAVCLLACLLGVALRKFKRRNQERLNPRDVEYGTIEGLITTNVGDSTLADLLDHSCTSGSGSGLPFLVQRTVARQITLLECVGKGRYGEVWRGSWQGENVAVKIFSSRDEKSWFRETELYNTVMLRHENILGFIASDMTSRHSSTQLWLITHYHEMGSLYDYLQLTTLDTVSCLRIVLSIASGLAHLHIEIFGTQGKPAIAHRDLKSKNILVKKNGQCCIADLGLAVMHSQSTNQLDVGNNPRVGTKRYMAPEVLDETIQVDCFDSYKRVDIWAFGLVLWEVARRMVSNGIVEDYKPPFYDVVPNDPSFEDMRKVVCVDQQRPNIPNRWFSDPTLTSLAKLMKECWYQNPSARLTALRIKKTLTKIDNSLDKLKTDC
Protocol: (§1) Mouse C2C12 cells were seeded into a 96-well plate (Greiner Bio-One) at 0.5×10³ cells/well, and cultured in 15% FBS-containing DMEM medium overnight under the conditions of 5% CO₂ at 37° C. On the following day, the C2C12 cells were transfected with each of a wild-type human ALK2 cDNA integrated into pcDEF3; pcDEF3/human ALK2-L196P, pcDEF3/human ALK2-P197_F198delinsL, pcDEF3/human ALK2-R202I, pcDEF3/human ALK2-R206H, pcDEF3/human ALK2-Q207E, pcDEF3/human ALK2-R258S, pcDEF3/human ALK2-G325A, pcDEF3/human ALK2-G328E, pcDEF3/human ALK2-G328R, pcDEF3/human ALK2-G328W, pcDEF3/human ALK2-G356D, and pcDEF3/human ALK2-R375P, which are variants identified in FOP; and pcDEF3 as a control, using Lipofectamine 2000 (Invitrogen), and further cultured overnight.
(§2) The C2C12 cells were fixed with 10% neutral formalin (Nacalai Tesque, Japan) for 20 minutes at room temperature, and then blocked with 10% goat normal serum for 30 minutes. After the blocking agent was removed, purified IgG diluted to 10 μg/mL with the blocking agent was added, and the cells were left for 1 hour at room temperature. After the cells were washed with PBS three times, Goat Alexa 594-conjugated anti-rat IgG (Invitrogen) diluted to 1:1000 with the blocking agent was added, and the cells were left for 1 hour at room temperature. After the cells were washed with PBS three times, the cells were fixed with 10% neutral formalin for 15 minutes at room temperature, and nuclear-stained with DAPI (LifeTechnologies). Fluorescent signals were analyzed with a fluorescence microscope BZ-9000 (Keyence).

[2] = target: T2, human ALK2-Q207E on cells (human, UniProt Q04771 21-509)
T2 sequence: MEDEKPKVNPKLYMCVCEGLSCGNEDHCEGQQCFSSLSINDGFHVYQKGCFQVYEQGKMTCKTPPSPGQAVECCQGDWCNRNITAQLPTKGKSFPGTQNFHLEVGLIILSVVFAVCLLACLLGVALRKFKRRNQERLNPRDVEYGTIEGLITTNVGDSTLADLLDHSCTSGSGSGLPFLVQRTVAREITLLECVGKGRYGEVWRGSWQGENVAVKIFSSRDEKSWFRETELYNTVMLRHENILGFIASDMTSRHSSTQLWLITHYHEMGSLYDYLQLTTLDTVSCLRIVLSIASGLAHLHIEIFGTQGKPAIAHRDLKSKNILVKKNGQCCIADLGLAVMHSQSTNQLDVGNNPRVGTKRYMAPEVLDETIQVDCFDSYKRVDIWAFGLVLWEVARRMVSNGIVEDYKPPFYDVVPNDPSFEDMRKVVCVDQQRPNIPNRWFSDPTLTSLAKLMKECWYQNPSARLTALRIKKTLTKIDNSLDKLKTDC
Protocol: as §1, §2

[3] = target: T3, human ALK2-R258S on cells (human, UniProt Q04771 21-509)
T3 sequence: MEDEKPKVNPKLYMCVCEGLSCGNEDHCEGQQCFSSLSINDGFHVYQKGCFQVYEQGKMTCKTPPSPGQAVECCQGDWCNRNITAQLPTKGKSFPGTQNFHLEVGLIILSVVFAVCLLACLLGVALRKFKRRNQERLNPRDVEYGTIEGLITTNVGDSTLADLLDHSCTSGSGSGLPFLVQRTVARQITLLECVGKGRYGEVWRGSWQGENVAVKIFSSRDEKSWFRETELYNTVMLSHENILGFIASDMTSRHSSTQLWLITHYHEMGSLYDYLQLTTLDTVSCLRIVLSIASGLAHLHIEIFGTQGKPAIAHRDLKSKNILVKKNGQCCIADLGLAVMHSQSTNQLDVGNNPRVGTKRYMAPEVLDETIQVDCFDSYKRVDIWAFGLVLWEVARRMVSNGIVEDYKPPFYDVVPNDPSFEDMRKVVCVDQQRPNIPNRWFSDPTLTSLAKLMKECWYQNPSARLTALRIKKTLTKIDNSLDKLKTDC
Protocol: as §1, §2

[4] = target: T4, human ALK2-G325A on cells (human, UniProt Q04771 21-509)
T4 sequence: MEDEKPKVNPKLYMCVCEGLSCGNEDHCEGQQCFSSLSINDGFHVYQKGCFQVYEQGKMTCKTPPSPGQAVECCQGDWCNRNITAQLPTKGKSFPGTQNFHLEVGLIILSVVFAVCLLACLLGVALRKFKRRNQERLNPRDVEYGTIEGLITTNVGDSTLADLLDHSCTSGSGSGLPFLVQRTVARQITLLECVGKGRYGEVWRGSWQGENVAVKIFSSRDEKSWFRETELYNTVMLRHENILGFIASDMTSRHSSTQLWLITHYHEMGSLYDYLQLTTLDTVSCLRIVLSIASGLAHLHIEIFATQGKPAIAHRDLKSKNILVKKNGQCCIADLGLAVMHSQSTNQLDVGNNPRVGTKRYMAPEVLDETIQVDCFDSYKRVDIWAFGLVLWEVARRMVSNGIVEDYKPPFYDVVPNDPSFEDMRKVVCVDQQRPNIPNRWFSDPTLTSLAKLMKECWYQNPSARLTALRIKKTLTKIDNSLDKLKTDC
Protocol: as §1, §2

Measured: binding result

B1: rat anti-ALK2 monoclonal antibody A2-27D (antibody, V domains shown)
VH: EVQLVESGGGLVQPGRSLKLSCLASGSTFSNYGMKWIRQAPGKGLEWVASISRSSTYIYYADTVKGRFTISRDNARNTLYLQMTSLRSEDTALYYCAAAISTPFYWYFDFWGPGTVVTVSS
VL: EIVLTQSPTTMAASPGEKVTLNCLASSSVSYMTWYQQKSGASPKLWIYGTSNLASGVPNRFSGSGSGTSYSLAISSMEAEDVATYYCLHLTSYPPYTFGAGTKLELKR
notes: Rat monoclonal IgG from a hybridoma; also called 27D11
binds: [1] | [2] | [3] | [4]

B2: rat anti-ALK2 monoclonal antibody A2-25C (antibody, V domains shown)
VH: EVQLVESGGGLVQPGGSLKLSCAASGFTFSYYAMSWVCQAPTKGLEWVASISRGGDNTYYRDTVKGRFTTSRDNAKNTLYLQMDSLRSEDTATYYCARLNYNNYFDYWGQGVMVTVSS
VL: DIQMTQSPASLSASLEEIVTITCQASQDIGNWLSWYQQKPGKSPQLLIYGATSLADGVPSRFSGSRSGTQYSLKISRLRVEDIGIYYCLQAYSAPFTFGSGTKLEIKR
notes: Rat monoclonal IgG from a hybridoma; also called 25C11
binds: [1] | [2] | [3] | [4]

From US20220041738A1 (SAITAMA MEDICAL UNIVERSITY, published 2022)
